The data set can be described thus: yeast display, Sf9 membrane polyspecificity reagent, FACS + sequencing; frameworks hold sequencing errors. An outline of the steps: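 Using colony PCR, genes from sorted yeast display clones were amplified, then sequenced on MiSeq at 2 × 250 and filtered by CDR length. The clones had been stained with 10% biotinylated, detergent-solubilized Sf9 membrane reagent for 1 hour at 4 °C and sorted by FACS into low and high (top ~1%) gates on anti-HA and streptavidin fluorescence. Polyreactivity labels come from the gate of origin.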
Take “QDQLVESGGGLVQAGGSLRLSCAASGSTFHWYVMGWYRQAPGKERELVAAISQSGGNTYYADSVKGRFTISRDNAKNTVYLQMNSLKPEVTAVFYCAADSVGVFNTTFFQFEYWGQGTQVTVSS”: the “polyreactivity (PSR sort gate)” value is given as “high polyreactivity”. For the sequence “QDQLVESGGGLVQAGGSLRLSCAASGSTFLINAMGWYRQAPGKERELVAAISDSGGSTHYADSVKGRFTISRDNAKNTVYLEMNSLKPEDTAVYYCAATIPTTLILYGYWGQGTQVTVSS”, the “polyreactivity (PSR sort gate)” value was “low polyreactivity”. As for “QDQLVESGGGLVQAGGSLRLSCAASGSTFQDYAMGWYRQAPGKERELVAAITYSGGSTYYADSVKGRFTISRDIAKNTVYLQMNSLKPEDTAVYYCAAKDTTVFYYDDDYWGHGTQVTVSS”, the “polyreactivity (PSR sort gate)” value is “low polyreactivity”. Take “QDQLVESGGGLVQAGGSLRLSCAASGSTFRHYAMGWYRQAPGKERELVAVISWGGTSTYYADSVKGRFTISRDNAKNTVYLQMNSLKPEDTAVYYCNKAYFPIFKGYEMYYWGQGTQVTVSS”: the “polyreactivity (PSR sort gate)” value is recorded as “low polyreactivity”. For the sequence “QDQLVESGGGLVQAGGSLRLSCAASGSTFSIYAMGWYRQATGKERELVAAIPYSGGSTYYADSVKGRFTISRDNAKNTVYLQMNSLKPEDTAVYYCAAEVYDSRWWYSGATDDYWGQGTQVTVSS”, the “polyreactivity (PSR sort gate)” value is recorded as “high polyreactivity”. To “QDQLVESGGGLVQAGGSLRLSCAASGSTFSYNMGWYRQAPGKERELVARITRGGGSTYYADSVKGRFTISRDNAKNTVYLQMNSLKPEDTAVYYCAADRYFRYYYWGQGTQVTVSS” belongs “high polyreactivity”. For the sequence “QDQLVESGGGLVQAGGSLRLSCAASGSTFSYYAMGWYRQATGKERELVASISTRGGSTYYADSVKGRFTISRDNAKNTVYLQMNSLKPEDTAVYYCAATIRPRGVARVDYWGQGTQVTVSS”, the “polyreactivity (PSR sort gate)” value is “high polyreactivity”. To “QDQLVESGGGLVQAGGSLRLSCAASGSTFTRNSMGRYRQAPWKERELVAVISSRGGRTYYADSVKGRFTISRDNAKNSVYLPMNSLKPDDTAVYYCAARYVIPLGNTYDYWGQGTQVNVSS” belongs “high polyreactivity”; to “QDQLVESGGGLVQAGGSLRLSCAASGSTFTSNAMGWYRQAPGKERELVAAISFSDASTYYADSVKGRFTISRDNAKKTVYLQMNSLKPEDTAVYYCNADYPTTAYDYCGQGTQVTVSS”, “low polyreactivity”; to “QDQLVESGGGLVQAGGSLRLSCAASGSTFYRYAMGRSRQAPGTERELVAAISWRGGSTYYADSVKGRFTISRDNAKNSVYLQMNSLKPEDTAVYYCNADWYPYDQMYYWGQGTQVTVSS”, “low polyreactivity”. For “QDQLVESGGGLVQAGGSLRLSCAASGSTIFVYTMGWYRQAPGKERELVAAISGSGGSTSYADSVKGRFTISRDNAKNTVYLQMNSLKPEDTAVYYCAARRHVYLRGSTFEFYYWGQGTQVTVSS”, the “polyreactivity (PSR sort gate)” value is “high polyreactivity”. Take “QDQLVESGGGLVQAGGSLRLSCAASGSTLVKYAMGWYRQAPGKERELVARITLNGGRTYYADSVKGRFTISRDNAKNTVYLQMNSLKPVDTAVYYCAKSLPHSTSRDYWGQGTQVTLSS”: the “polyreactivity (PSR sort gate)” value was “low polyreactivity”. In the case of “QDQLVESGGGLVQAGGSLRLSCAASGSTLYMYAMGWYRQAPGKERELVAAISWSDDTTYYADSVKGRFTISRDNAKNTVYLQMNSLKPEDTAVYYCNAETYYGNSFGPFSYDYWGQGTQVTVSS”, the “polyreactivity (PSR sort gate)” value is reported as “low polyreactivity”. Take “QDQLVESGGGLVQAGGSLRLSCAASGSTSYRYSMGWYRQAPGKEREFVAAISWSGGSTYYADSVKGRFTISRDTAKNTVYLQMNSLKPEDTAVYYCAAVSRRGSARFDYWGQGTQVTVSS”: the “polyreactivity (PSR sort gate)” value is “high polyreactivity”. To “QDQLVESGGGLVQAGGSLRLSCAASGTIFDVYAMGWYIQAPGKERELVAAISYGGGSTYYADSVKGRFTISRDNAKNTVYLQINSLKPEDTAVYYCAADDDVYGLEYGYWGQGTQVTVSS” belongs “low polyreactivity”.

For “QDQLVESGGGLVQAGGSLRLSCAASVIIFEYYTMGWYRQAPGKERELVASITYDGDSTYYADSVKRRFTISRDNAKKTVYLQMNSQTPEDTAFYSCAADYYYVYSSYGHYYWGQGTQVTVSS”, the “polyreactivity (PSR sort gate)” value is listed as “low polyreactivity”. With “QDQLVESGGGLVQAGGSLRLSCADSGRIFCINAMGWYRQAPGKERELVAAINWSGGSTYYADSVKGRFTISRDNAKNTVYLQMNSLKPEDTAVYYCAAQKYKRVGYWGQGTQVTVSS”, the “polyreactivity (PSR sort gate)” value is on record as “high polyreactivity”. Regarding “QDQLVESGGGLVQAGGSLRLSCASSGITIATNAMGWSRQAPGKERELVAAISWSGGSTYYADSVKGRFTISRDNAKNTVFLQMNSLKPEDTAVYYCATGYSVWYDYWGQGTQVTVSS”, the “polyreactivity (PSR sort gate)” value is “low polyreactivity”. With “QDQLVESGGGLVQAGGSLRLSCASSGSTFVRYAMGWYRQAPGKERELVATISKSGGSTSYADSVKGRFTISRDNAKNTVYLQMNSLKPEDTAVYYCAADFLYIWAIFDYWGQGTQVTVSS”, the “polyreactivity (PSR sort gate)” value is recorded as “low polyreactivity”. The value for “QDQLVESGGGLVQAGGSLRLSCDASGRIFWVYVMGWYRQAPGKERELVADITSIGGSTYYADSVKGRFTISRDNAKNTVYLQMNSLKPEDTAVYSCAADVDGYPYYQYKMGYWGQGTQVTVSS” was “low polyreactivity”; that for “QDQLVESGGGLVQAGGSLRLSCSASGRIFTRNTMGWYRQAPGKERELVAAITSRGGSTYYADSVKGRFTISRDNAKNTVYLQMNSLKPEDTAVYDCAADKPRSYYYWGQGTQVTVSS” was “high polyreactivity”; that for “QDQLVESGGGLVQAGGSLRLSCSASGRTFHRNAMGWYRQAPGKERESVAAITGDGRTNYADSVKGRFTISRDNAKNTVYLQMNSLKPEDNAVYYCAARFSYRSYDYWGQGTQVTVSS” was “low polyreactivity”. For the sequence “QDQLVESGGGLVQAGGSLRLSSAASGLTLHGNAMGWYRHAPGKERELVATITSSGGSTFYADSVKGRFTLSRDNAKNTVYLKMNSMKPEDTAVYYCNADAPYSVDYYVRFDYWGQGTQVTVSS”, the “polyreactivity (PSR sort gate)” value is on record as “low polyreactivity”. For “QDQLVESGGGLVQAGGSLRLSSAASGSIFRGYAMGWYRQAPGKERELVAAITFSGGSTYADSVKGRFTISRDNAKITVYLQMNSLKPEDTAVYYCAAKRTGHNWFTVYPYYSWGQGTQVTVSS”, the “polyreactivity (PSR sort gate)” value is on record as “low polyreactivity”. On to “QDQLVESGGGLVQAGGSLRLTCAASGSIFRYYVMGWYRQAPGKERELVAGISSSGGRTYYADSVKGRFTISRDNANNTVYLQMNSLKPEDTAVYYCNAVTSRRPYDYWGHGTQVTVSS”, for which the “polyreactivity (PSR sort gate)” value is “high polyreactivity”.

In the case of “QDQLVESGGGLVQAGGSLRLTCAASGSIFSANVMGWYRQAPGKERELVAAIRRGGTTYYADSVKGRFTISRDNSKNTVYLQMNRLNPEDSAVYYCATDGIFGSYLRFEVAYDYWGQGTQVTVSS”, the “polyreactivity (PSR sort gate)” value is “low polyreactivity”. As to “QDQLVESGGGLVQAGGSLRLTCAASGSIIVRYAMGWYRQAPGKERELVASISKRGGSTYYADSVKGRFTISRDNAKNTVYLQMNSLKPEDTAVYYCAAVGYYLVKFDYWGQGTQVTVSS”, the “polyreactivity (PSR sort gate)” value is “high polyreactivity”. With “QDQLVESGGGLVQAGGSLSLSCAASGSIFETYDMGWYRQAPGKERELVAAISLSGGSTYYADSVKGRFTISRDNAKNTVYLQMYSLKPEDTAVYYCASDTYYVSYGYYYWGLGTQVTVSS”, the “polyreactivity (PSR sort gate)” value is “low polyreactivity”.

In the case of “QDQLVESGGGLVQAGRSLRLSCAASGRTFRTYTMGWYRQAPGKERELVAAISRGGSTNYADSVKGRFTISRDNEKNTVYLQMNSLKPEDTAVYYCNAKASFCSPYDYWGQGTQVTVSS”, the “polyreactivity (PSR sort gate)” value is “high polyreactivity”. On to “QDQLVESGGGLVQAGVSLRLICAASGRTFYLYAIGWYRQAPGKERELVAAITWGGATTYYADSVKGRFTISRDNAKNTVYLQMNSLKPEVTAVYYCAAGGYTVWHYQYYAMDYCGQGTQVTVSS”, for which the “polyreactivity (PSR sort gate)” value is recorded as “low polyreactivity”. Consider “QDQLVESGGGLVQAVGSLRLSCAASGFTFYRNAMGWYRQAPGKERELVAAITWSGTSTYFADSVKGRFTISRDNAQNTVYLQLNSLKPEDTAVYYCNARGFQKSDPRGYLILNYWGQGTQVTVSS”, for which the “polyreactivity (PSR sort gate)” value is reported as “high polyreactivity”. Turning to “QDQLVESGGGLVQAVGSLRLSCAASGSTFGLYAMGWYRQAPGKERELVAAITIRGGSTYYADSVKGRFTISRDNAKKTVYLQMNSLKPEDTAVYYCAADYWYGCFEYWGQGTQVTVSS”, the “polyreactivity (PSR sort gate)” value is “low polyreactivity”. “QDQLVESGGGLVQEGGSLRLICAASGRTLQSYAMGGYRQAPGKERELVAAISGGASTYADSVKGRFTISRDNAKNTVYLQMNSLKPEDTAVYYCAADDDPVPTYEYDYWGQGTQVTVSS”: the “polyreactivity (PSR sort gate)” value is on record as “low polyreactivity”. As for “QDQLVESGGGLVQEGGSLRLSCAASGSTFPYNAMGWYRQAPGKERELVAAITRRAGRTYYADSVKGRFTISRDNAKNTVYLQLNSLKTEDTAVYYCAKSYQRGVYHYVYWGQVTQVTVSS”, the “polyreactivity (PSR sort gate)” value is recorded as “high polyreactivity”. With “QDQLVESGGGLVQEGGSLRLSCAAYGTIFQIYAMGWYIQAPGKERELVAAINSGGISKYADSVKGRFTISRDNAKNSVYLQMNSLTPADTAVYYCAASVDTGRYSVYYHGYTYDYWGQGTQVTVSS”, the “polyreactivity (PSR sort gate)” value is on record as “low polyreactivity”. “QDQLVESGGGLVQWGRSLGIRCAASGRIFNVKAMGWYRQAPGNEREFDAAISGSVGSTYYADSVKGRFTISRDNAKYSVYLQHNSLKRLDTAVYYCAARYGYDRNRRPGYVYWGQGTQVTVSS”: the “polyreactivity (PSR sort gate)” value was “low polyreactivity”.

For “QDQLVESGGGVVQAGGSLRLSCAASGSIFAYNAMGWYRQAPGKERELVAAITDSGGSTFYADSVKGRFTISRDNAKNTVYLQMNSLKPEDTAVYYCATSGDRLVWGQGTQVTVSS”, the “polyreactivity (PSR sort gate)” value was “low polyreactivity”. For the sequence “QDQLVESGRGIFKAGGSLRLSCAASGSIFGDNAMGWSRHAPGKDRELVAAISSGGPTYADSVKGRFTISRDNAKNTVYLQMNSLKAEDSAVYFCNATDGINPYDLTDFEFDYWGQGTEVTVSS”, the “polyreactivity (PSR sort gate)” value is “low polyreactivity”. For the sequence “QDQLVESGRGLVQAGGNLRLSCAPSRSIFTTYAMGWYRQARGKERHFVATITSSDSTNYADSVKGRFTISRDNAKNTVYLQMNSLNPEETAVYYCNAGGDRTVSVAWYSADDFWGQGTQVTVSS”, the “polyreactivity (PSR sort gate)” value is “low polyreactivity”. Regarding “QDQLVESGRGLVQAGGSLRLSCAASGSTFDGKAMGWSRQAPGKERELVATISNSGGRSYYADSVKGRFTISRDNAKNTVYLQMNSLKPEETAVYYCAADHPAFGPGYSFDYWGQGTQVTVSS”, the “polyreactivity (PSR sort gate)” value was “low polyreactivity”. For the sequence “QDQLVESGVGLVHAGGSLRLSCAATGRIFTYNAMGWYRQAPWKEREVVAAITSSGGSTYYADSVKGRFTISRDNAKNTVYLQMNSLKQEDSAVSYCATVRRGRDYWGQGTQVTVSS”, the “polyreactivity (PSR sort gate)” value is given as “high polyreactivity”.

The values are drawn from the nanobody polyreactivity screen of Harvey et al. (2022).
